Assay results published in patent US6576419.

Molecular target: anti-hCG monoclonal antibody from Organon Teknika, Boxtel, the Netherlands
Experiment: competition: hCG displaces FpepT from anti-hCG Mab, fluorescence at 590 nm, fit to exchange model (K1)

Kd: 490 pM
Substance: human chorionic gonadotrophin (hCG) (from UniProt P01215 25-116; P0DN86 21-165) (ligand)
